What all share (assay): MST
The target of test [1] is MLLT4 PDZ domain (residues 961-1056) (human) (UniProt P55196).
Test [2] concerns the target T1, ZO-1 PDZ2 domain (residues 184-264) (human, UniProt Q07157 184-264).
T1 sequence: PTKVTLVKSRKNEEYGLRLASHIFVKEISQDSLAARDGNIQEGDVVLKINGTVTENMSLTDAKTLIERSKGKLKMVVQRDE

The target in test [3] is T2, LNX2 PDZ2 domain (residues 334-426) (human, UniProt Q8N448 334-426).
T2 sequence: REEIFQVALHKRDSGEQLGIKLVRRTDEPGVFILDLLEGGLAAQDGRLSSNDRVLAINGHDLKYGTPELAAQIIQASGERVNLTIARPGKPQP

The target in test [4] is PARD3 PDZ3 domain (residues 582-685) (human, UniProt Q8TEW0 582-685).
Chain of PARD3 PDZ3 domain (residues 582-685) (Q8TEW0 582-685): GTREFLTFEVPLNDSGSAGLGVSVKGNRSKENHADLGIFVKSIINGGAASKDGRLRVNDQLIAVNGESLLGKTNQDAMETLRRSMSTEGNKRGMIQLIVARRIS
Test [5] concerns the target T3, MPP5 PDZ domain (residues 238-336) (human, UniProt Q8N3R9 238-336).
T3 sequence: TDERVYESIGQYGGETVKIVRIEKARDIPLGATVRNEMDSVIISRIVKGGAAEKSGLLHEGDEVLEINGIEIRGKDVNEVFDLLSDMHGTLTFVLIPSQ

Where no end group is shown, it is not given here. A value given as a limit tells only on which side of the number the result lay.

With NLNSSRVLDLLV (not fully specified) [C-terminal SARS-CoV-2-E PBM P71L mutant peptide (12-mer, beta variant B.1.351)], the Kd – broadly, the free concentration of one partner at which half of the binding sites on the other are occupied at equilibrium, for simple one-to-one binding – in test [1] was over 1000 µM; in test [2], 133 µM; in test [3] it was 47 µM; in test [4], over 1000 µM. For the same molecule, in test [5], the binding result is given as “binds”.

The record behind these values is publication doi:10.1101/2021.12.04.471219 (bioRxiv, 2021).
